Molecular target: rRANKL (Cambrex) (UniProt O14788)
Experiment: cell-based or functional assay

Chain of UniProt O14788 (O14788 140-317 limits assumed): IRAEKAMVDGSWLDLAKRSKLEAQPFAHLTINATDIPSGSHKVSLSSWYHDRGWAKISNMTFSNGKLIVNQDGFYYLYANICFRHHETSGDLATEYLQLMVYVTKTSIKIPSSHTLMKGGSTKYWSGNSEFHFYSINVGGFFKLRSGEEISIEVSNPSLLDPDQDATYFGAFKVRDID

rRANKL-induced OC differentiation in OCP-RASF coculture, αvβ3 integrin cELISA luminescent readout (ng/mL rRANKL inhibited by 22 ng/mL rOPG): < 7.5 | rRANKL-induced OC differentiation in OCP-RASF coculture, αvβ3 integrin cELISA luminescent readout (ng/mL rRANKL inhibited by 66 ng/mL rOPG): < 15
Substance: Recombinant OPG (R&D cat185-05-025) (from UniProt O00300 22-401) (receptor)

From patent publication US20090117107A1
